The text below walks through data of US6936706.

For the experiment, the target named is bacterial fusion protein 11-2 (a hybrid of b-galactosidase and human mammary mucin) (human) (UniProt P15941). The experiment in a line: competition RIA against 125I-labeled murine BrE-3 on 11-2 fusion protein; reciprocal of the competitor concentration giving 50% binding.

B1: murine-human chimeric BrE-3 antibody (ATCC HB 11199, Chimeric BrE-3 A1C10) (antibody, V domains shown)
VH: EVKLEESGGGLVQPGGSMKLSCAASGFTFSDAWMDWVRQSPEKGLEWVAEIRNKANNHATYYDESVKGRFTISRDDSKSRVYLQMISLRAEDTGLYYCTGEFANWGQGTLVTVSA
VL: DVVMTQTPLSLPVSLGDQASISCRSSQNLVHNNGNTYLYWFLQKSGQSPKLLIYRASIRFSGVPDRFSGSGSETDFTLKISRVEAEDLGVYFCFQGTHVPWTFGGGTKLEIK
B1 returned a Ka of 2.68e+08 M⁻¹.

B2: murine BrE-3 monoclonal antibody (ATCC No. HB 10028) (antibody, V domains shown)
VH: B1 VH
VL: B1 VL
In the case of B2, the Ka was 3.75e+08 M⁻¹.
